The target in data set [1] is HIV-1 gp120 (Human immunodeficiency virus 1) (UniProt P04578). In words: competition. Particulars: ID50 for gp120, gp120-CD4 interaction.
Data set [2] has as its target T1, SIV integrase (Simian immunodeficiency virus) (UniProt P05897).
T1 sequence: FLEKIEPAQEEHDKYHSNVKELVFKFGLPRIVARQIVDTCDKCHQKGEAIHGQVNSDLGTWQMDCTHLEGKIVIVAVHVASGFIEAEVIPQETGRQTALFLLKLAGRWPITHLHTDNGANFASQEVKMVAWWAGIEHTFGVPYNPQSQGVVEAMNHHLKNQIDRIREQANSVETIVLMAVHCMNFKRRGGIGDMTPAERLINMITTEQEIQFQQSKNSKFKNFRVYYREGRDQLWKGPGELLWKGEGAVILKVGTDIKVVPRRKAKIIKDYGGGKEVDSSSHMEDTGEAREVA
In words: inhibition. As to conditions: PS at first and last internucleoside linkages (pPT), 3'-OH; 3'-processing.

In data set [3] the target is HIV-1 integrase wild-type (IN1-288) (Human immunodeficiency virus 1) (UniProt P12497). In words: inhibition. Particulars: I, 3'-processing.

Some results are limits rather than exact numbers.

What is called IC50 is the concentration needed to halve the response being measured.

With GATCCATGTCAGTGACAC [1231 random GATC], the IC50 in data set [1] (phosphodiester, 3'-amine) was more than 100000 nM.

As for GATCCATGTCAGTGACAC [1232 random GATC], in data set [1] (PS all linkages, 3'-amine), the IC50 was more than 10000 nM.

In data set [1] (phosphodiester, 3'-amine), GGGTGGGTGGGTGGGTGG [1173] yielded a 50% inhibitory concentration (IC50) of more than 100000 nM. In turn, GGGTGGGTGGGTGGGTGG [1174] came in with a 50% inhibitory concentration (IC50) in data set [1] (PS all linkages, 3'-amine) of 90 nM.

In data set [2], GTGGTGGGTGGGTGGGT [T30177 (AR177)] registered an IC50 of 420 nM. As to “GTGGTGGGTGGGTGGGTGGTGGGTGGTGGTTGTGGGTGGGTGGTG [I100-07]”, the concentration for half-maximal inhibition (IC50) in data set [1] (phosphodiester, 3'-amine) was 800 nM. On to “GTGGTGGGTGGGTGGGTGGTGGGTGGTGGTTGTGGGTGGGTGGTG [I100-21]”, for which the IC50 in data set [1] (PS all linkages, 3'-amine) turned out to be 70 nM. In data set [1] (phosphodiester, 3'-propanolamine), GTTGGGGGTTGTTGGTGGGGTGGTGG [I100-00] returned an IC50 of 3500 nM. Regarding GTTGGGGGTTGTTGGTGGGGTGGTGG [I100-12], the IC50 in data set [1] (PS all linkages, 3'-amine) stood at 80 nM. In data set [3] (PS all linkages, strand transfer 0.036), “TCTTCCTCTCTCTACCCACGCTCIC [T30531 antisense GEM91 variant PT]” yielded an IC50 of 30 nM. Sequence “TCTTCCTCTCTCTACCCACGCTCIC [T30658 antisense GEM91 variant PD]” came in with an IC50 in data set [3] (all phosphodiester, strand transfer >0.5) of more than 500 nM.

In turn, “TCTTCCTCTCTCTACCCACGCTCIC [T30662 antisense GEM91 variant pPT]” had an IC50 in data set [3] (PS at first and last linkages (pPT), strand transfer >0.5) of more than 500 nM.

The record behind these values is patent US6355785.
